Experimental data from the supplement of paper PMC12042874.
± gives the uncertainty stated by the source.

Assay: amyloid nucleation score (Sup35N fusion, yeast selection) (log enrichment); library NNK1; higher = more nucleation; inactive = no reads after selection
In short: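 Using DiMSum, nucleation scores were taken as the log enrichment of output over input reads, centred on the mode score of non-aggregating sequences. The input and output reads came from Illumina sequencing of plasmid inserts, with sequences under 100 input reads excluded. The yeast were psi-negative, expressed Sup35N fused to peptides of 20 random codons, were induced with 100 μM copper sulfate for 24 hours, and were grown 7 days at 30°C on medium lacking adenine and uracil.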

| Substance | amyloid nucleation score |
| --- | --- |
| EHGERAQGPISGMLGRKCIE | 1.04 ± 0.98 |
| EHHGGISGGNKCCSTCKSRR | 0.361 ± 1 |
| EHLVHLYKFSSAFERVGW | -0.352 ± 0.7 |
| EHSFRNRCEAANWLVWLRVI | -0.061 ± 0.51 |
| EIDNLHWVLVVNYPTSQFKR | -0.02 ± 0.39 |
| EIVVIASRTASPDFIN | 1.01 ± 0.74 |
| EKRRNNTSNRSWSGSYFLDT | 0.111 ± 0.28 |
| EKSCATRLA | 0.374 ± 0.29 |
| ELASSLIVFVDFSRACELNL | 4.95 ± 0.12 |
| ELKPKAFVVLSDHRHGYKRQ | -0.076 ± 0.97 |
| ELNDVMRSGSKG | 0.992 ± 1 |
| ELSGGA | 3.75 ± 0.1 |
| ELTGFFFCVRTSKCRIW | 0.533 ± 0.46 |
| ELTRGLWRFGAEWWATQQKT | 0.364 ± 0.31 |
| ELVSS | -0.455 ± 0.26 |
| EMAELLAMRQLLRTKIH | 0.265 ± 0.34 |
| EMGSSLYTRHGNVRSLAFGW | 0.242 ± 0.48 |
| EMNVSILKHAYSQALSFARW | -0.068 ± 0.45 |
| EMRNLNLYVLAEPNGVGNSA | inactive |
| ENGIGN | 0.453 ± 0.22 |
| ENPDW | 1.66 ± 0.73 |
| ENPWFMCICYGANRVHVCNG | 0.539 ± 0.33 |
| ENQFTVLSNGFDVIALFSFE | 1.07 ± 0.93 |
| EPFGLGFRRNDLSYANRVGS | -0.887 ± 1.3 |
| EPSGLLFSTLGTSTYGYIQF | 2.27 ± 0.11 |
| EPTDYWRVY | inactive |

| Substance | amyloid nucleation score |
| --- | --- |
| EQAGVRVTDYVAVELLFWRF | 0.826 ± 0.39 |
| EQRVNLISVWIRGDLETPHG | 0.47 ± 0.73 |
| ERAKRSY | 3.04 ± 0.069 |
| ERFLFGSMSTYANGRCVGAY | -1.11 ± 2.4 |
| ERTMGLSVMWAIECCLRNPG | 2.05 ± 0.24 |
| ERVLYIGFYTYVDNCFRLLK | -0.12 ± 0.34 |
| ESFGRTISVTELSHMT | 0.487 ± 0.39 |
| ESLRDRARWGNCMQILICSL | -0.055 ± 0.55 |
| ESLREVTLYATKSLWMNLRL | -1.83 ± 1.1 |
| ESRCRTLKIVLCCGFLSDWP | inactive |
| ESTSYCKSDYLVRFVFEDGL | -0.294 ± 0.39 |
| ETHLIGVCYNRCL | 0.643 ± 0.42 |
| ETLAFVLRFRNREDFCGGMV | 1.01 ± 0.64 |
| ETLSFGKHLPRVHAFHHVRC | -0.671 ± 1.2 |
| ETSPF | -0.03 ± 0.76 |
| EVASGVCTRIRLYSRCEWKG | 2.84 ± 0.091 |
| EVCFCEGEVKFWGKGAIFSR | -1.88 ± 1.8 |
| EVGHFRSDVDLFWV | -1.04 ± 0.44 |
| EVIVYKTFEDVSQRVRHNWN | 1.89 ± 0.22 |
| EVLKVSHSF | -0.009 ± 0.46 |
| EVLNIYLHNRLNVLFTELAS | -0.884 ± 1.4 |
| EVRSSFYPSHYYRALRDL | -1.37 ± 2.4 |
| EVSIFGDRIHIELHLVGEVL | -1.12 ± 2.1 |
| EWACFRGAYPAYSDLFR | -0.327 ± 0.67 |
| EWYLIYGGTRSGLIYRSYAR | 0.109 ± 0.38 |
| EYLAFDVPNWVGFLGSLWNM | -0.064 ± 0.8 |

| Substance | amyloid nucleation score |
| --- | --- |
| EYWGRGEVRADMWRRWIGW | 1.23 ± 0.4 |
| FASASLLFSKPESG | -1.41 ± 2.4 |
| FASMIFSRASSSSDNIFFRN | 0.361 ± 0.22 |
| FASWFFMCRDGGLIM | -0.573 ± 0.66 |
| FATAGKFVY | -1.23 ± 1.2 |
| FAWLGCFSWTLNFWDKYMRG | -0.856 ± 1.4 |
| FAYGI | -0.633 ± 0.62 |
| FCDRNIIVCSELGKGWLWLR | 1.4 ± 0.25 |
| FCLYISTIDID | 0.556 ± 0.59 |
| FCNSALLSQLGFLKTWDQRG | -0.604 ± 1.6 |
| FCPNHHNCVISCEWHSGALR | 2.51 ± 0.13 |
| FCPTVETYNVW | 2.12 ± 0.14 |
| FCRKSQEKYWVPFK | -0.667 ± 1 |
| FCSSSLFHKVTLG | -0.043 ± 0.77 |
| FCVRICNCRIWCLCSLTKSL | -0.624 ± 0.46 |
| FDAAIVLCSDVSIKGCLSRN | 1.27 ± 0.27 |
| FDFYSLRRGGVNYRSLLQVI | 0.25 ± 0.84 |
| FDGFNFISWIVR | 2.06 ± 0.11 |
| FDRFCFIIIVQYSFHG | 1.35 ± 0.76 |
| FDSLVSREFVP | -0.887 ± 1.5 |
| FEFDNR | -0.003 ± 0.53 |
| FELICRW | 0.516 ± 1.1 |
| FEVSGMCRVQVVTYNFFSSS | 6.99 ± 0.088 |
| FEWRFPHQR | -0.025 ± 0.64 |
| FFCSNDLSFVAELILINRQV | 0.87 ± 0.58 |
| FFDSRFLFDSRTGSMYA | -1.71 ± 1.5 |

| Substance | amyloid nucleation score |
| --- | --- |
| FFDYGDAWSFHRMNNWDVLY | -0.935 ± 0.62 |
| FFFKAFDLATTSLGRYNMCN | -0.66 ± 0.52 |
| FFGGNSAVVVIRWMSRSGHW | 0.489 ± 0.64 |
| FFILW | -0.75 ± 1.2 |
| FFISALLNSSFGEFTFGSVK | -0.432 ± 0.65 |
| FFKNLCSRGCLCSYGMVQTV | 0.396 ± 0.58 |
| FFLMIQSVT | 0.84 ± 0.47 |
| FFMLFRCGF | 0.333 ± 0.87 |
| FFRVLFFTFLAWYVELKWQL | -0.201 ± 0.78 |
| FFVGLPYTNSYHIPHVF | inactive |
| FFVKMHIFSFFQVATVVYMH | 0.043 ± 0.33 |
| FFVVMVIDNKHPQQENSRIR | 1.74 ± 0.34 |
| FFWYPTFISFDRKFEVTIGP | 5.07 ± 0.053 |
| FGAFYVGDHG | -1.7 ± 1.3 |
| FGCTKANT | -0.657 ± 1.1 |
| FGHGV | -0.626 ± 1.6 |
| FGICKYFNRFVMNIRSVDES | -0.618 ± 0.52 |
| FGLTCRLHKAVFRFYNKRTS | inactive |
| FGPGCCIFL | 7.481 ± 0.054 |
| FGQSQPCDVTRENFCKEACN | -0.028 ± 0.9 |
| FGSSVSAVNFRVV | -0.448 ± 0.4 |
| FGWRISILLVPHRLFRGLPQ | -0.85 ± 1.9 |
| FGYRMAYGSHVFVHSYRTEP | 2.42 ± 0.24 |
| FGYVDPRQCDISEHLPLSTV | -0.345 ± 0.61 |
| FHGSGESVNTDTMLTLYISV | -0.157 ± 0.54 |
| FHHMVLE | -0.783 ± 0.54 |

| Substance | amyloid nucleation score |
| --- | --- |
| FHYWFIIKVPTWMVYRDLTA | -0.203 ± 0.34 |
| FIAQLYVNEMFDSLTLRRGD | 0.415 ± 0.33 |
| FICRFDVHWHSGMFSLYPWC | 0.682 ± 0.47 |
| FIDRIYSIVYGVGGCMMSLI | 0.008 ± 0.47 |
| FIEHQTRSFDKILSYAWLEA | 0.379 ± 0.61 |
| FIISSTQPRCRAPLTS | -0.165 ± 0.56 |
| FIIWHELWKVMWSSTALSLD | 0.769 ± 0.69 |
| FINDYMIQYSLHLQVLMST | 3.95 ± 0.074 |
| FIRGLCNVLGCSR | 1.04 ± 0.24 |
| FISRCSFAGSCVK | -1.27 ± 1.7 |
| FIYLVLLSR | 1.32 ± 0.23 |
| FKEDITFADGISDWSCQYTM | inactive |
| FKHDYKFEGVCRVNDFLMGF | -0.115 ± 0.9 |
| FKSILRYPADRKMS | 0.997 ± 0.76 |
| FKVIYARFVTIWVAVRRAFL | 0.051 ± 0.69 |
| FKVVF | -0.909 ± 1.9 |
| FKYALKTSCLLIVQDGGSMR | -0.023 ± 1.4 |
| FLAIILSWPFSAQFGFNVEG | 0.533 ± 0.62 |
| FLARNFCIC | 5.67 ± 0.064 |
| FLCHWLYFRNSYGGYVSRW | 1.92 ± 0.4 |
| FLCLLMFPIRHRL | 0.004 ± 0.33 |
| FLDASVDKSLSYPGHIVAFR | -1.57 ± 1.7 |
| FLEFAYVVFKILEKNGGLSY | -1.56 ± 0.86 |
| FLFFRS | 4.62 ± 0.086 |
